Assay results reported in PMC3616717.

T1: human F-box-containing DNA helicase FBH1, FLAG-tagged and biotinylated, non-ubiquitylated (human), Q8NFZ0
T1 chain: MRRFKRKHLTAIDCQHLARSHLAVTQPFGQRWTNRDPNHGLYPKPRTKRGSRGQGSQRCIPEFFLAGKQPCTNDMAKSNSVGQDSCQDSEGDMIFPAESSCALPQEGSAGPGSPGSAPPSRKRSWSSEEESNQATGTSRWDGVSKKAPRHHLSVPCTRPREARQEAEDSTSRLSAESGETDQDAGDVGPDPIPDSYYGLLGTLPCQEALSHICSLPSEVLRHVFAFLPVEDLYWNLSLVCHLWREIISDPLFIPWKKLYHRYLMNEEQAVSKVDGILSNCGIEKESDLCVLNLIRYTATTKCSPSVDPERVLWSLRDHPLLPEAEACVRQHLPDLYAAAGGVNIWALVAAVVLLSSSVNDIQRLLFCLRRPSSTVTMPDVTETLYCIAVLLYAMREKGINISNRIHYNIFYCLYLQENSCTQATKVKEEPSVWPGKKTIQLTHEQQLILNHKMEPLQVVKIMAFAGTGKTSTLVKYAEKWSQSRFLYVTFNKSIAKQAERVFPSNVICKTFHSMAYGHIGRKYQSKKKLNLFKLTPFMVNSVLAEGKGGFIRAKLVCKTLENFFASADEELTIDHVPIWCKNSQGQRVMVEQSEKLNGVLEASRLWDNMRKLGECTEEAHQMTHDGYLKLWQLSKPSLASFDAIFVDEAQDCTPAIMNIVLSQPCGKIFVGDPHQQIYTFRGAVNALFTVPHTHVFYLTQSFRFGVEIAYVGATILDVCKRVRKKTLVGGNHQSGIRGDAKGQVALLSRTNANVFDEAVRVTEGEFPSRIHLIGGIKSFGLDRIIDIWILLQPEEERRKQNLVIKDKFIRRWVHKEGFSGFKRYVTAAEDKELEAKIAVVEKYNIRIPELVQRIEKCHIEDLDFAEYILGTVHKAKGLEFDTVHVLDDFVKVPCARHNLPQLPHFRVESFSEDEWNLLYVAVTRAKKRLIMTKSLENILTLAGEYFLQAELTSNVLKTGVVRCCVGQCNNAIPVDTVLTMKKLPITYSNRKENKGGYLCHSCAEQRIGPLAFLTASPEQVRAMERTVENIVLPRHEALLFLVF


Columns and labels:
[1] = biological target: T1, human F-box-containing DNA helicase …; experiment: single-molecule TIRFM; details: remark: other sources report otherwise
RAD51 = RAD51 (UniProt Q06609 1-339); experiment: single-molecule FRET

Binder	kon [1] [M⁻¹ s⁻¹]	binding result (RAD51)
human RAD51 protein, Q06609 1-339 (natural protein, here or on the partner: biotin on the underlined lysine of the BAP sequence (…)) MAMQMQLEANADTSVEEESFGPQPISRLEQCGINANDVKKLEEAGFHTVEAVAYAPKKELINIKGISEAKADKILAEAAKLVPMGFTTATEFHQRRSEIIQITTGSKELDKLLQGGIETGSITEMFGEFRTGKTQICHTLAVTCQLPIDRGGGEGKAMYIDTEGTFRPERLLAVAERYGLSGSDVLDNVAYARAFNTDHQTQLLYQASAMMVESRYALLIVDSATALYRTDYSGRGELSARQMHLARFLRMLLRLADEFGVAVVITNQVVAQVDGAAMFAADPKKPIGGNIIAHASTTRLYLRKGRGETRICKIYDSPCLPEAEAMFAINADGVGDAKD	2.7e+07	
Cy3/Cy5-labeled poly(dT)60 (oligo g) (ssDNA) DNA: TTTTTTTTTTTTTTTTTTTTTTTTTTTTTTTTTTTTTTTTTTTTTTTTTTTTTTTTTTTT		binds
